These substances were tested against piscicolin 126 (Carnobacterium piscicola JG126).

How did the residual bacteriocin activity after enzyme treatment (% of original activity; bioassay with Listeria monocytogenes 4A) turn out when Protease I (enzyme) was run?
Its residual bacteriocin activity after enzyme treatment (% of original activity; bioassay with Listeria monocytogenes 4A) is 0%.

Pepsin (enzyme) was tested. Which residual bacteriocin activity after enzyme treatment (% of original activity; bioassay with Listeria monocytogenes 4A) did it give?
The residual bacteriocin activity after enzyme treatment (% of original activity; bioassay with Listeria monocytogenes 4A) was 100%.

For β-Chymotrypsin (enzyme), which residual bacteriocin activity after enzyme treatment (% of original activity; bioassay with Listeria monocytogenes 4A) is on record?
Its residual bacteriocin activity after enzyme treatment (% of original activity; bioassay with Listeria monocytogenes 4A) is 0%.

With Catalase (enzyme) as the substance, how does the residual bacteriocin activity after enzyme treatment (% of original activity; bioassay with Listeria monocytogenes 4A) read?
The residual bacteriocin activity after enzyme treatment (% of original activity; bioassay with Listeria monocytogenes 4A) was 100%.

Which residual bacteriocin activity after enzyme treatment (% of original activity; bioassay with Listeria monocytogenes 4A) does the source give for Trypsin (enzyme) here?
The residual bacteriocin activity after enzyme treatment (% of original activity; bioassay with Listeria monocytogenes 4A) was 6%.

α-Chymotrypsin (enzyme) was tested. Which residual bacteriocin activity after enzyme treatment (% of original activity; bioassay with Listeria monocytogenes 4A) did it give?
The residual bacteriocin activity after enzyme treatment (% of original activity; bioassay with Listeria monocytogenes 4A) was 0%.

Lipase (enzyme) was tested. Which residual bacteriocin activity after enzyme treatment (% of original activity; bioassay with Listeria monocytogenes 4A) did it give?
The residual bacteriocin activity after enzyme treatment (% of original activity; bioassay with Listeria monocytogenes 4A) was 100%.

Lysozyme (enzyme) was tested. Which residual bacteriocin activity after enzyme treatment (% of original activity; bioassay with Listeria monocytogenes 4A) did it give?
Its residual bacteriocin activity after enzyme treatment (% of original activity; bioassay with Listeria monocytogenes 4A) is 100%.

For Protease XIV (enzyme), which residual bacteriocin activity after enzyme treatment (% of original activity; bioassay with Listeria monocytogenes 4A) is on record?
Its residual bacteriocin activity after enzyme treatment (% of original activity; bioassay with Listeria monocytogenes 4A) is 3%.

Which residual bacteriocin activity after enzyme treatment (% of original activity; bioassay with Listeria monocytogenes 4A) does the source give for Protease XXIII (enzyme) here?
The residual bacteriocin activity after enzyme treatment (% of original activity; bioassay with Listeria monocytogenes 4A) was 0%.
